# Results published in US20140154255A1 (AbbVie / Abbott, published 2014).
# Changes are numbered by the printed parent chain. Numbers in names are those of the source.
# B1: 91 (antibody, human IgG1, V domains shown)
# VH: EVQLVESGGGLVQPGGSLRLSCAASGYTFTFYGMNWVRQAPGKGLEWVGWINTYTGEPTYAADFKRRFTFSLDTSKSTAYLQMNSLRAEDTAVYYCAKYPHYYGSSHWYFDVWGQGTLVTVSS
# VL: DIQMTQSPSSLSASVGDRVTITCSASQDISNYLNWYQQKPGKAPKVLIYFTSSLHSGVPSRFSGSGSGTDFTLTISSLQPEDFATYYCQQYSTVPWTFGQGTKVEIKR
# B2: 93 (antibody, human IgG1, V domains shown)
# VH: B1 VH with F31N, H101E
# VL: B1 VL
# B3: 92 (antibody, human IgG1, V domains shown)
# VH: B1 VH with F31N, H101P
# VL: B1 VL
# B4: 95 (antibody, human IgG1, V domains shown)
# VH: B1 VH with F31N, H101D
# VL: B1 VL
# B5: 86 (seventh row of Table 7) (antibody, human IgG1, V domains shown)
# VH: B1 VH with Y103D, S105G
# VL: DIQMTQSPSSLSASVGDRVTITCSASQDISNYLNWYQQKPGKAPKVLIYFTSSLHSGVPSRFSGSGSGTDFTLTISSLQPEDFATYYCQQYSTVPWTFGQGTKVEIK
# notes: defined here by its substitutions; copies: 2 + 2
# B6: 94 (antibody, human IgG1, V domains shown)
# VH: B1 VH with S105G
# VL: B1 VL
# B7: 96 (antibody, human IgG1, V domains shown)
# VH: B1 VH with H101P, S105G
# VL: B1 VL
# B8: E 56 Q (bispecific antibody)
# VH: EVQLVESGGGLVQPGGSLRLSCAASGFTFSNFPMAWVRQAPGKGLEWVATISSSDGTTYYRDSVKGRFTISRDNAKNSLYLQMNSLRAEDTAVYYCARGYYNSPFAYWGQGTLVTVSSASTKGPEVQLVESGGGLVQPGGSLRLSCAASGYTFTNYGMNWVRQAPGKGLEWVGWINTYTGQPTYAADFKRRFTFSLDTSKSTAYLQMNSLRAEDTAVYYCAKYPHYYGSSHWYFDVWGQGTLVTVSS
# VL: DIQMTQSPSSLSASVGDRVTITCRASEDIYSNLAWYQQKPGKAPKLLIYDTNNLADGVPSRFSGSGSGTDFTLTISSLQPEDFATYYCQQYNNYPPTFGQGTKLEIKRTVAAPDIQMTQSPSSLSASVGDRVTITCSASQDISNYLNWYQQKPGKAPKVLIYFTSSLHSGVPSRFSGSGSGTDFTLTISSLQPEDFATYYCQQYSTVPWTFGQGTKVEIK
# notes: also called SS DLL4-VEGF DVD-Ig variant E56Q
# B9: E 56 R (bispecific antibody)
# VH: B8 VH with Q181R
# VL: B8 VL
# notes: also called SS DLL4-VEGF DVD-Ig variant E56R
# B10: G 55 Q (bispecific antibody)
# VH: B8 VH with G180Q, Q181E
# VL: B8 VL
# notes: also called SS DLL4-VEGF DVD-Ig variant G55Q
# B11: T 30 F (bispecific antibody)
# VH: B8 VH with T154F, Q181E
# VL: B8 VL
# notes: also called SS DLL4-VEGF DVD-Ig variant T30F
# B12: T 28 D (bispecific antibody)
# VH: B8 VH with T152D, Q181E
# VL: B8 VL
# notes: also called SS DLL4-VEGF DVD-Ig variant T28D
# B13: E 56 W (bispecific antibody)
# VH: B8 VH with Q181W
# VL: B8 VL
# notes: also called SS DLL4-VEGF DVD-Ig variant E56W
# B14: N 31 G (bispecific antibody)
# VH: B8 VH with N155G, Q181E
# VL: B8 VL
# notes: also called SS DLL4-VEGF DVD-Ig variant N31G
# B15: T 28 W (bispecific antibody)
# VH: B8 VH with T152W, Q181E
# VL: B8 VL
# notes: also called SS DLL4-VEGF DVD-Ig variant T28W
# B16: E 56 T (bispecific antibody)
# VH: B8 VH with Q181T
# VL: B8 VL
# notes: also called SS DLL4-VEGF DVD-Ig variant E56T
# Biological target: T1, human VEGF-A residues 27-191 of Accession #AAV38412 (human, UniProt P15692 27-191)
# T1 construct: range 27-191
# T1 sequence (P15692 other isoform, or with tags, fused parts or gaps limits assumed): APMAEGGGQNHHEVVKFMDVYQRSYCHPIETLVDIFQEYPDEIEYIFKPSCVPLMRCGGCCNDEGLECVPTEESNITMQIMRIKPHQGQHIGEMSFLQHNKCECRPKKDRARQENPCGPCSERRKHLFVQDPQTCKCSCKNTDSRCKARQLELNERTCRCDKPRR
# Test: BIAcore SPR
# Procedure: (§1) The binding kinetics and affinity of the antibodies for VEGF (human VEGF-A residues 27-191 of Accession #AAV38412) was determined by using a BIAcore T200 surface plasmon resonance system (BIAcore, GE Healthcare, Piscataway, N.J.). Coupling running buffer was HBS-EP+ running buffer (10 mM HEPES, 150 mM sodium chloride, 3 mM EDTA 0.05% P-20, pH 7.4); assay running buffer was HBS-EP+ with 300 mM sodium chloride and 0.1 mg/mL BSA (Sigma A7906). Polyclonal goat anti-human Fc (Thermo Scientific prod#31125) was first immobilized to the biosensor surface in 10 mM sodium acetate, pH 4.5 using standard BIAcore amine coupling reagents (N-ethyl-N′-dimethylamino-propylcarbodiimide, EDC; N-hydroxysuccinimide, NHS; and ethanolamine HCl, pH 8.5). For binding kinetics assay a series of cycles were performed, each cycle consisted of 1) mAb capture, 2) Ag or buffer injection, 3) dissociation phase and 4) regeneration. Briefly, anti-VEGF antibodies were captured on parallel surfaces at a low flow rate of 10 μL/min. Capture levels were kept low to minimize avidity due to the dimeric nature of VEGF. No capture of the antibody was made on the reference surface to serve for primary referencing and as a negative control. Subsequently, VEGF or buffer only was injected to all flow cells at a flow rate of 80 μL/min for three minutes to monitor association followed by a 20-minute flow of assay rinning buffer at a flow rate of 80 μL/min to monitor dissociation. […] At the end of each cycle the surface was regenerated with 10 mM glycine, pH 1.5 at a flow rate of 60 μL/min in pulses of 60 and 10 sec. Binding data were fit to the 1:1 Langmuir model with mass transport term included using Biacore T200 Evaluation Software to determine the binding constants.
Binder,Kd [nM],koff [s⁻¹],kon [M⁻¹ s⁻¹]
B1,0.091,2.48e-05,272000
B2,1.59,0.000358,225000
B3,0.522,0.00021,401000
B4,1.3,0.000351,270000

# Biological target: T2, unlabeled human VEGF (ELISA coat) (human, UniProt P15692-4 27-191, limits assumed)
# T2 sequence (P15692 other isoform, or with tags, fused parts or gaps limits assumed): as above
# Test: ELISA overnight, EC50 WT/EC50 mutant
# Procedure: (§2) To detect identified variants binding to antigen, ELISA plates (Nunc-Immuno MaxiSorp plates, Nalge Nunc, Rochester, N.Y.) were coated overnight at 4° C. with unlabeled human VEGF at 1 μg/mL in 0.2 M sodium carbonate-bicarbonate buffer (pH 9.4, Pierce, Rockford, Ill.). The plates were then blocked with SuperBlock Blocking Buffer (Pierce, Rockford, Ill.) for 30 min and washed with Washing Buffer (PBS containing 0.1% Tween 20). All the washing steps were performed for three times. […] The plates were washed and 100 μL of goat anti-human kappa HRP-conjugated antibody (Southern Biotech, Birmingham, Ala.) diluted at 1:1000 in ELISA buffer was added to each well. After 30 minutes of incubation, plates were washed and bound antibodies were detected by addition of TMB 1 Component HRP Microwell substrate (BioFx #TMBW-1000-01). The reaction was terminated by addition of 100 μL/well of 650 nM Stop Reagent for TMB Microwell substrate and the absorbance was measured at 650 nm using a VERSAmax microplate reader (Molecular Devices, Sunnyvale, Calif.). Data were fitted using nonlinear regression with the software […]
row,Binder,ELISA o/n binding [fold]
1,B1,0.3
2,B2,3.6
3,B3,1
4,B4,3

# Biological target: T3, VEGF (R&D systems, Minneapolis, Minn.) (UniProt P15692-4 27-191, limits assumed)
# T3 sequence (P15692 other isoform, or with tags, fused parts or gaps limits assumed): as above
# Test: BIAcore SPR, mutant/WT
# Procedure: (§3) RL was kept low to minimize avidity due to the dimeric nature of VEGF. No capture of the antibody was made on the reference surface to serve as a negative control. Subsequently, VEGF was injected to all flow cells at a flow rate of 50 μL/min for two minutes to monitor association followed by a 25-minute flow of HBS-P running buffer (10 mM HEPES, 150 mM sodium chloride, 0.005% P-20, pH 7.4) to monitor the dissociation phase. At each cycle, VEGF, in 6 different concentrations of VEGF ranging between 0 nM and 512 nM and at four-fold increments, was injected over the surface. […] Binding data were fit to the 1:1 Langmuir model to extract binding constants from the BIAevaluate software. Double referencing was applied in each analysis to eliminate background responses from the reference surface and buffer only control. All the binding kinetics data were analyzed at least three separate determinations.
row,Binder,Δkon [fold]
1,B1,1.2
2,B5,5.4
3,B6,1.4
4,B7,1.3
5,B2,1.6
6,B3,2
7,B4,1.5

# Biological target: T3, VEGF (R&D systems, Minneapolis, Minn.)
# Test: BIAcore SPR, improvement over WT
# Procedure: as §3
row,Binder,ΔKD [fold]
1,B1,3.4
2,B5,7
3,B6,2.3
4,B7,1.1
5,B2,2.6
6,B3,2.8
7,B4,1.3

# Biological target: T3, VEGF (R&D systems, Minneapolis, Minn.)
# Test: BIAcore SPR
# Procedure: as §3
Binder,Kd [nM],koff [s⁻¹],kon [M⁻¹ s⁻¹]
B1,0.575,0.000121,211000
B5,0.282,0.000273,968000
B6,0.857,0.00022,258000
B7,1.75,0.000379,225000
B2,0.761,0.000225,292000
B3,0.708,0.000256,367000
B4,1.54,0.000396,262000

# Biological target: T3, VEGF (R&D systems, Minneapolis, Minn.)
# Test: BIAcore SPR, WT/mutant
# Procedure: as §3
row,Binder,Δkoff [fold]
1,B1,2.9
2,B5,1.3
3,B6,1.6
4,B7,0.9
5,B2,1.6
6,B3,1.4
7,B4,0.9

# Biological target: T1, human VEGF-A residues 27-191 of …
# Test: BIAcore SPR, KD WT/KD mutant
# Procedure: as §1
row,Binder,affinity improvement [fold]
1,B1,4.7
2,B2,0.3
3,B3,0.8
4,B4,0.4

# Biological target: T1, human VEGF-A residues 27-191 of …
# Test: SS DLL4-VEGF DVD-Ig format; BIAcore by paragraph 262
# Procedure: as §1
row,Binder,Affinity relative to WT [fold]
1,B8,0.7
2,B9,0.9
3,B10,0.9
4,B11,0.4
5,B12,0.8
6,B13,0.6
7,B14,1.1
8,B15,0.6
9,B16,0.8

# Biological target: T2, unlabeled human VEGF (ELISA coat)
# Test: ELISA 1 hr, EC50 WT/EC50 mutant
# Procedure: as §2
row,Binder,ELISA 1hr binding [fold]
1,B1,0.7
2,B2,4.3
3,B3,2.7
4,B4,4.5
